What all share (experiment): ITC
In general terms: Isothermal titration calorimetry measures the heat released or taken up as one component is titrated into another.

Assay [1] has as its target T1, CaM N-lobe fragment (residues 1–80) (UniProt P0DP23 1-80).
The target in assay [2] is T1, CaM N-lobe fragment (residues 1–80). The source holds these as a separate data set.
In assay [3] the target is T2, CaM C-lobe fragment (residues 80–149) (UniProt P0DP23 80-149).
In assay [4] the target is T2, CaM C-lobe fragment (residues 80–149). This is another data set of the same source.
Assay [5] addresses Calmodulin (CaM), full-length (UniProt P0DP23 1-149).

For NDRLQELVKLEKERTEKVKEKLIDP (peptide, UniProt Q14028 565-589, looked up) [CaM1^F575E peptide (CNGB1 residues 565–589, F575E)], in assay [1], the Ka was below 20000 M⁻¹. Moreover, the equilibrium dissociation constant (Kd) in assay [2] is above 50 µM.

Molecule GGKGAKGGKLAHLRAREKELAALEAAAK (peptide, UniProt Q14028 1120-1147, looked up) [CaM2^L1136E peptide (CNGB1 residues 1120–1147, L1136E)] returned a Ka in assay [3] of 12000 M⁻¹. In assay [4], this molecule showed a Kd of 84 ± 10 µM.

For the molecule GGKGAKGGKLAHLRARLKELAALEAAAK (peptide, UniProt Q14028 1120-1147, looked up) [CaM2 peptide, CNGB1 residues 1120–1147], the Ka in assay [3] is 9.8e+06 M⁻¹; in assay [1] it was below 18000 M⁻¹. For the same molecule, the Kd in assay [4] came to 0.1 ± 0.02 µM; in assay [5], 25 ± 4 µM.

On to NDRLQELVKLFKERTEKVKEKLIDP (peptide, UniProt Q14028 565-589, looked up) [CaM1 peptide, CNGB1 residues 565–589], for which the Ka is 34000 M⁻¹ in assay [3] and 180000 M⁻¹ in assay [1]. The Kd in assay [4] is 29 ± 5 µM; in assay [2], 5.7 ± 1 µM.

In assay [3], GGKGAKGGKLAHERARLKELAALEAAAK (peptide, UniProt Q14028 1120-1147, looked up) [CaM2^L1132E peptide (CNGB1 residues 1120–1147, L1132E)] yielded a Ka of 18000 M⁻¹. For the same molecule, the affinity in assay [4], expressed as Kd, was 54 ± 5 µM.

In general, Kd refers to the equilibrium constant for the complex coming apart. Read a high Kd as lower affinity.

(Values after PMC9810080 (Biochemistry, 2022).)
